The source of these data is doi:10.1101/2025.06.18.660405 (bioRxiv, 2025).

Where two headings read alike, the source gives them in different places.

Assay in all cases: pull-down
In assay [1] the target is fibrillarin F>S (six phenylalanines of the N-terminal GF-IDR replaced with serines) (human) (UniProt P22087).
Assay [2] has the same target. This is another data set of the same source.
Assay [3] deals with T1, MBP-GAR1 (full-length) (human, UniProt Q9NY12 1-217).
T1 sequence (looked up): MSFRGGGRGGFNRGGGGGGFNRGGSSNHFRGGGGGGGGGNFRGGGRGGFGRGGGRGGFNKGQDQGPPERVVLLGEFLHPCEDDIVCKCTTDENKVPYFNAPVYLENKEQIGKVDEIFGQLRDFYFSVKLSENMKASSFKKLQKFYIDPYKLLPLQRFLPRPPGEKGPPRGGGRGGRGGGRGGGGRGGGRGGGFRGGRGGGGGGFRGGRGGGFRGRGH

The target in assay [4] is T2, MBP-fibrillarin (full-length) (human, UniProt P22087 1-321).
T2 sequence (looked up): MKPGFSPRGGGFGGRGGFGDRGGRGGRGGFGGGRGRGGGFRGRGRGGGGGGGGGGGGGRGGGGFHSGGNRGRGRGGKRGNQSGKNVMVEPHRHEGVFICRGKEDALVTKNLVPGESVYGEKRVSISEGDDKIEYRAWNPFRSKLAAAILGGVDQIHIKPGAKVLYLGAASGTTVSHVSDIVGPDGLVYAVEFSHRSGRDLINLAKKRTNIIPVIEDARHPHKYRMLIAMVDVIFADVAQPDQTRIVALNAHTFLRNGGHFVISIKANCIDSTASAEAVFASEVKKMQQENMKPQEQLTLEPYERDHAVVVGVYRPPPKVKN

Assay [5] deals with MBP-NOP58 ΔNLS (human) (UniProt Q9Y2X3).
Chain of MBP-NOP58 ΔNLS (human) (Q9Y2X3 whole entry, stated change not applied, the tested form may be a part): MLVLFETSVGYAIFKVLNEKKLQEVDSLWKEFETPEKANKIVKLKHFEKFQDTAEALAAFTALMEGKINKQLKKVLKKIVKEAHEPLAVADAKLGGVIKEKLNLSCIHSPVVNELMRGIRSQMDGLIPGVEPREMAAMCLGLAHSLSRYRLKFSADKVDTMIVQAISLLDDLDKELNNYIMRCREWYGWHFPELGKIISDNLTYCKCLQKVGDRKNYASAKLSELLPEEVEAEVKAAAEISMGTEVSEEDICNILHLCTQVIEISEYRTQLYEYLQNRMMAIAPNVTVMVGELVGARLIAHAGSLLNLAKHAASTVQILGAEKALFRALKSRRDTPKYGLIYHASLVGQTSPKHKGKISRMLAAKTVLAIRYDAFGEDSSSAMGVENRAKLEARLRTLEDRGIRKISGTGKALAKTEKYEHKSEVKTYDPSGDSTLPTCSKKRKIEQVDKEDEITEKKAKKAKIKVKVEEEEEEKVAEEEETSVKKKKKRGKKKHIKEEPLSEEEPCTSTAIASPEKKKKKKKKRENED
Assay [6] has as its target T3, MBP fused to the C-terminal NLS IDR of NAP57 (92aa) (human).
T3 sequence (O60832 whole entry, looked up): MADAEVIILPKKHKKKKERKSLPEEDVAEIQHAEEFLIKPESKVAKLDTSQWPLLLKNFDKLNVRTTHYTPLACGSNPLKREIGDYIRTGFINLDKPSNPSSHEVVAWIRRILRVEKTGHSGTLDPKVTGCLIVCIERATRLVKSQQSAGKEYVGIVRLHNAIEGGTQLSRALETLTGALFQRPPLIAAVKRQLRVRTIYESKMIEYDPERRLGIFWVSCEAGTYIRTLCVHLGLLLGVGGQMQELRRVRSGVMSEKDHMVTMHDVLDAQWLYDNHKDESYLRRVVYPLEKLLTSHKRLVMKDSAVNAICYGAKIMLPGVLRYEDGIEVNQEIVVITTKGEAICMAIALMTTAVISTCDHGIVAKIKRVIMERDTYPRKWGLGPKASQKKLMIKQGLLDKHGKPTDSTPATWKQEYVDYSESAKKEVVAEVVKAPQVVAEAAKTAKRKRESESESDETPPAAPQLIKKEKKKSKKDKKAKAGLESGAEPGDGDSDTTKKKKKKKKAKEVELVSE

B1: GST-GAR1 (natural protein, human, UniProt Q9NY12 1-217, looked up)
chain: T1 sequence (looked up)
Regarding B1, the reduction of binding relative to wild-type fibrillarin came out at 35% in assay [1] and 40% in assay [2]. In addition, the binding result in assay [3] and in assay [4] was “binds” each time.

B2: GFP-Nopp140 (phosphorylated) (natural protein)
chain: MADAGIRRVVPSDLYPLVLGFLRDNQLSEVANKFAKATGATQQDANASSLLDIYSFWLKSAKVPERKLQANGPVAKKAKKKASSSDSEDSSEEEEEVQGPPAKKAAVPAKRVGLPPGKAAAKASESSSSEESSDDDDEEDQKKQPVQKGVKPQAKAAKAPPKKAKSSDSDSDSSSEDEPPKNQKPKITPVTVKAQTKAPPKPARAAPKIANGKAASSSSSSSSSSSSDDSEEEKAAATPKKTVPKKQVVAKAPVKAATTPTRKSSSSEDSSSDEEEEQKKPMKNKPGPYSSVPPPSAPPPKKSLGTQPPKKAVEKQQPVESSEDSSDESDSSSEEEKKPPTKAVVSKATTKPPPAKKAAESSSDSSDSDSSEDDEAPSKPAGTTKNSSNKPAVTTKSPAVKPAAAPKQPVGGGQKLLTRKADSSSSEEESSSSEEEKTKKMVATTKPKATAKAALSLPAKQAPQGSRDSSSDSDSSSSEEEEEKTSKSAVKKKPQKVAGGAAPSKPASAKKGKAESSNSSSSDDSSEEEEEKLKGKGSPRPQAPKANGTSALTAQNGKAAKNSEEEEEEKKKAAVVVSKSGSLKKRKQNEAAKEAETPQAKKIKLQTPNTFPKRKKGEKRASSPFRRVREEEIEVDSRVADNSFDAKRGAAGDWGERANQVLKFTKGKSFRHEKTKKKRGSYRGGSISVQVNSIKFDSE
modifications: serines of the acidic serine repeats phosphorylated (expressed in insect cells to be fully phosphorylated)
Regarding B2, the GFP-Nopp140 pulled down relative to WT MBP-NOP58 in assay [5] was determined as 20%.

B3: Nopp140 (phosphorylated, hexa histidine tagged) (natural protein)
chain: B2 chain
modifications: serines of the acidic serine repeats phosphorylated (expressed in insect cells to be fully phosphorylated)
For B3, the Nopp140 pulled down relative to full-length NAP57 in assay [6] was determined as 50%.
